Here are results for one substance from patent US9828628.

In assay [1] the target is HIV-1 gp41 epitope peptide with linker, conjugated to 17-base DNA (peptide-linker-DNA) and hybridized to the modular oligonucleotide probe (HIV-1). The experiment in a line: fluorescent modular DNA probe with two gp41 peptide copies, titrated with antibody; two-state fit.
Assay [2] has the same target. As to the kind of experiment: electrochemical modular probe (methylene blue, square wave voltammetry) on a gold electrode, antibody titration in 80% whole blood [panel c (lower].

Usually Kd stands for the equilibrium constant for the complex coming apart. Read a high Kd as a looser complex. Take “antibody 2F5 specific for gp41 (Polymun Scientific)”: the Kd in assay [1] is 4 nM; in assay [2], 33 nM.
